Results taken from paper PMC6113376.

How the values were obtained:
[1] = target: porcine GP2 isoform 2, incompletely deglycosylated under native conditions (pig); assay: static adhesion assay (bacteria on coated protein); porcine GP2 incubated in native conditions with (NE) or without (N) deglycosylation enzymes, coated; S. Typhimurium 5744 wild type and its fimH deletion mutant added
[2] = target: porcine GP2 isoform 1, incompletely deglycosylated under native conditions (pig); assay: as above

## FimH of Salmonella Typhimurium wild type strain Tym5744 (from UniProt P37925 23-335) (natural protein)
[1]
  percent decrease of binding against GP2 that was not digested: 53%
[2]
  percent decrease of binding against GP2 that was not digested: 59%
